From the Human Domainome abundance scans (Beltran et al. 2025) come the findings set out here.

± gives the uncertainty stated by the source.

This series in a line: abundance fitness (aPCA) (normalised: wild type 0, dead -1); higher = more abundant; growth selection in yeast, the domain comes from the species named. The following applies: Homo sapiens.
In turn, “DnaJ homolog subfamily B member 1 T8Y, P25685” yielded an abundance fitness of -0.261 ± 0.05.

“DnaJ homolog subfamily B member 1 V54A, P25685” came in with an abundance fitness of -0.201 ± 0.2.

“DnaJ homolog subfamily B member 1 V54C, P25685” had an abundance fitness of 0.063 ± 0.086.

“DnaJ homolog subfamily B member 1 V54D, P25685” yielded an abundance fitness of -0.419 ± 0.14.

“DnaJ homolog subfamily B member 1 V54E, P25685”: the abundance fitness is -0.126 ± 0.15.

For the substance “DnaJ homolog subfamily B member 1 V54F, P25685”, the abundance fitness stood at 0.077 ± 0.21.

Consider “DnaJ homolog subfamily B member 1 V54G, P25685”, for which the abundance fitness was -0.322 ± 0.058.

The substance “DnaJ homolog subfamily B member 1 V54H, P25685” yielded an abundance fitness of -0.886 ± 0.19.

In turn, “DnaJ homolog subfamily B member 1 V54I, P25685” came in with an abundance fitness of -0.096 ± 0.12.

“DnaJ homolog subfamily B member 1 V54L, P25685”: the abundance fitness is -0.171 ± 0.076.

“DnaJ homolog subfamily B member 1 V54M, P25685” gave an abundance fitness of -0.084 ± 0.14.

Substance “DnaJ homolog subfamily B member 1 V54N, P25685” came in with an abundance fitness of -0.084 ± 0.11.

For the substance “DnaJ homolog subfamily B member 1 V54P, P25685”, the abundance fitness is -0.699 ± 0.059.

“DnaJ homolog subfamily B member 1 V54Q, P25685” yielded an abundance fitness of -0.423 ± 0.21.

As to “DnaJ homolog subfamily B member 1 V54S, P25685”, the abundance fitness was -0.15 ± 0.076.

For the substance “DnaJ homolog subfamily B member 1 V54T, P25685”, the abundance fitness came to 0.065 ± 0.12.

With “DnaJ homolog subfamily B member 1 V54W, P25685”, the abundance fitness was -0.185 ± 0.16.

Take “DnaJ homolog subfamily B member 1 V54Y, P25685”: the abundance fitness is -0.211 ± 0.27.

Substance “DnaJ homolog subfamily B member 1 Y5A, P25685” yielded an abundance fitness of -0.316 ± 0.13.

As to “DnaJ homolog subfamily B member 1 Y5C, P25685”, the abundance fitness was -0.164 ± 0.18.

Take “DnaJ homolog subfamily B member 1 Y5E, P25685”: the abundance fitness is -0.808 ± 0.28.

Substance “DnaJ homolog subfamily B member 1 Y5F, P25685” returned an abundance fitness of -0.449 ± 0.16.

On to “DnaJ homolog subfamily B member 1 Y5G, P25685”, for which the abundance fitness was -0.672 ± 0.092.

For “DnaJ homolog subfamily B member 1 Y5H, P25685”, the abundance fitness came out at 0.024 ± 0.068.

Regarding “DnaJ homolog subfamily B member 1 Y5I, P25685”, the abundance fitness is -0.416 ± 0.21.

On to “DnaJ homolog subfamily B member 1 Y5K, P25685”, for which the abundance fitness is -0.493 ± 0.15.

“DnaJ homolog subfamily B member 1 Y5L, P25685” registered an abundance fitness of -0.284 ± 0.14.

“DnaJ homolog subfamily B member 1 Y5M, P25685” registered an abundance fitness of -0.179 ± 0.11.

The substance “DnaJ homolog subfamily B member 1 Y5N, P25685” displayed an abundance fitness of -0.392 ± 0.12.

“DnaJ homolog subfamily B member 1 Y5P, P25685” had an abundance fitness of -0.232 ± 0.15.

“DnaJ homolog subfamily B member 1 Y5Q, P25685” yielded an abundance fitness of -0.3 ± 0.15.

With “DnaJ homolog subfamily B member 1 Y5R, P25685”, the abundance fitness is -0.52 ± 0.11.

In the case of “DnaJ homolog subfamily B member 1 Y5S, P25685”, the abundance fitness is -0.262 ± 0.1.

In the case of “DnaJ homolog subfamily B member 1 Y5T, P25685”, the abundance fitness was -0.699 ± 0.24.

For the substance “DnaJ homolog subfamily B member 1 Y5V, P25685”, the abundance fitness is -1.47 ± 0.2.

“DnaJ homolog subfamily B member 1 Y5W, P25685”: the abundance fitness was -0.305 ± 0.22.

With “DnaJ homolog subfamily B member 1 Y6A, P25685”, the abundance fitness is -0.991 ± 0.18.

Take “DnaJ homolog subfamily B member 1 Y6C, P25685”: the abundance fitness was -0.863 ± 0.22.

As for “DnaJ homolog subfamily B member 1 Y6D, P25685”, the abundance fitness was -0.747 ± 0.16.

On to “DnaJ homolog subfamily B member 1 Y6E, P25685”, for which the abundance fitness is -0.683 ± 0.097.

“DnaJ homolog subfamily B member 1 Y6F, P25685”: the abundance fitness was -0.162 ± 0.16.

“DnaJ homolog subfamily B member 1 Y6G, P25685” displayed an abundance fitness of -0.977 ± 0.2.

“DnaJ homolog subfamily B member 1 Y6K, P25685” returned an abundance fitness of -0.911 ± 0.15.

Take “DnaJ homolog subfamily B member 1 Y6M, P25685”: the abundance fitness is -0.806 ± 0.11.

“DnaJ homolog subfamily B member 1 Y6N, P25685” gave an abundance fitness of -0.523 ± 0.13.

Substance “DnaJ homolog subfamily B member 1 Y6P, P25685” showed an abundance fitness of -0.589 ± 0.2.

Substance “DnaJ homolog subfamily B member 1 Y6Q, P25685” showed an abundance fitness of -0.742 ± 0.13.

For the substance “DnaJ homolog subfamily B member 1 Y6R, P25685”, the abundance fitness was -0.986 ± 0.1.

As for “DnaJ homolog subfamily B member 1 Y6S, P25685”, the abundance fitness was -0.817 ± 0.072.

Turning to “DnaJ homolog subfamily B member 1 Y6T, P25685”, the abundance fitness is -0.557 ± 0.11.

On to “DnaJ homolog subfamily B member 1 Y6V, P25685”, for which the abundance fitness was -1.18 ± 0.086.

On to “DnaJ homolog subfamily B member 1 Y6W, P25685”, for which the abundance fitness is -0.204 ± 0.13.

The substance “DnaJ homolog subfamily B member 1 Y24A, P25685” gave an abundance fitness of -0.686 ± 0.24.

On to “DnaJ homolog subfamily B member 1 Y24C, P25685”, for which the abundance fitness is -0.504 ± 0.086.

“DnaJ homolog subfamily B member 1 Y24D, P25685” gave an abundance fitness of -0.654 ± 0.16.

“DnaJ homolog subfamily B member 1 Y24E, P25685” came in with an abundance fitness of -0.411 ± 0.1.

In turn, “DnaJ homolog subfamily B member 1 Y24F, P25685” gave an abundance fitness of -0.075 ± 0.2.

Consider “DnaJ homolog subfamily B member 1 Y24G, P25685”, for which the abundance fitness is -0.499 ± 0.1.

In the case of “DnaJ homolog subfamily B member 1 Y24H, P25685”, the abundance fitness is -0.38 ± 0.2.

“DnaJ homolog subfamily B member 1 Y24I, P25685”: the abundance fitness is -0.788 ± 0.2.

Consider “DnaJ homolog subfamily B member 1 Y24K, P25685”, for which the abundance fitness was -0.358 ± 0.099.

“DnaJ homolog subfamily B member 1 Y24L, P25685” came in with an abundance fitness of -0.492 ± 0.061.

Substance “DnaJ homolog subfamily B member 1 Y24M, P25685” yielded an abundance fitness of -0.223 ± 0.074.

For the substance “DnaJ homolog subfamily B member 1 Y24N, P25685”, the abundance fitness is -0.408 ± 0.11.

Turning to “DnaJ homolog subfamily B member 1 Y24Q, P25685”, the abundance fitness is -0.547 ± 0.091.

Consider “DnaJ homolog subfamily B member 1 Y24R, P25685”, for which the abundance fitness is -0.404 ± 0.055.

With “DnaJ homolog subfamily B member 1 Y24S, P25685”, the abundance fitness is -0.464 ± 0.055.

Substance “DnaJ homolog subfamily B member 1 Y24T, P25685” yielded an abundance fitness of -0.427 ± 0.08.

Substance “DnaJ homolog subfamily B member 1 Y24V, P25685” yielded an abundance fitness of -0.547 ± 0.09.

For “DnaJ homolog subfamily B member 1 Y24W, P25685”, the abundance fitness was -0.159 ± 0.079.

In the case of “DnaJ homolog subfamily B member 1 Y31A, P25685”, the abundance fitness is -0.175 ± 0.12.

For “DnaJ homolog subfamily B member 1 Y31D, P25685”, the abundance fitness was -0.27 ± 0.16.

As for “DnaJ homolog subfamily B member 1 Y31E, P25685”, the abundance fitness is -0.294 ± 0.089.

On to “DnaJ homolog subfamily B member 1 Y31F, P25685”, for which the abundance fitness is -0.347 ± 0.17.

Regarding “DnaJ homolog subfamily B member 1 Y31G, P25685”, the abundance fitness is -0.302 ± 0.1.

On to “DnaJ homolog subfamily B member 1 Y31H, P25685”, for which the abundance fitness is -0.494 ± 0.21.

Consider “DnaJ homolog subfamily B member 1 Y31I, P25685”, for which the abundance fitness was -0.259 ± 0.052.

As to “DnaJ homolog subfamily B member 1 Y31L, P25685”, the abundance fitness was -0.16 ± 0.063.

“DnaJ homolog subfamily B member 1 Y31M, P25685” registered an abundance fitness of -0.164 ± 0.092.

“DnaJ homolog subfamily B member 1 Y31N, P25685” had an abundance fitness of -0.287 ± 0.14.

For the substance “DnaJ homolog subfamily B member 1 Y31P, P25685”, the abundance fitness is -0.537 ± 0.095.

“DnaJ homolog subfamily B member 1 Y31Q, P25685” came in with an abundance fitness of -0.181 ± 0.12.

Substance “DnaJ homolog subfamily B member 1 Y31R, P25685” registered an abundance fitness of -0.401 ± 0.086.

Turning to “DnaJ homolog subfamily B member 1 Y31T, P25685”, the abundance fitness is -0.369 ± 0.12.

For “DnaJ homolog subfamily B member 1 Y31V, P25685”, the abundance fitness is -0.234 ± 0.12.

In turn, “DnaJ homolog subfamily B member 1 Y31W, P25685” came in with an abundance fitness of -0.188 ± 0.1.

Substance “DnaJ homolog subfamily B member 1 Y52A, P25685” showed an abundance fitness of -0.265 ± 0.083.

“DnaJ homolog subfamily B member 1 Y52C, P25685” gave an abundance fitness of -0.404 ± 0.21.

Substance “DnaJ homolog subfamily B member 1 Y52D, P25685” yielded an abundance fitness of -0.3 ± 0.17.

For “DnaJ homolog subfamily B member 1 Y52E, P25685”, the abundance fitness was -0.441 ± 0.069.

As to “DnaJ homolog subfamily B member 1 Y52F, P25685”, the abundance fitness amounted to 0.076 ± 0.091.

For “DnaJ homolog subfamily B member 1 Y52G, P25685”, the abundance fitness was -0.194 ± 0.077.
